The values that follow come from the supplement of paper PMC9170038.

This data set has as its system MS2 coat protein. Nature of the data set: apparent KD of MS2 coat protein; designed switch direction (-1 OFF switch, 1 ON switch): -1; higher = weaker reporter binding. A digest of the protocol:
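The buffer was Tris-HCl pH 7.5 with KCl, MgCl2, BSA, DTT, tRNA and Tween-20. In it, SNAP-549-labelled MS2 coat protein was titrated in doubling steps from 0.7 or 1.5 nM to 3 µM over chip-bound RNA switches transcribed by stalled E. coli RNA polymerase on Illumina chips. Apparent KD is the per-design median over clusters of curve fits to normalised fluorescence.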

[1] abbreviates: input ligand: microRNA oligo, concentration not stated.
Where [2] appears, read: Eterna round: R95, input ligand: microRNA oligo, concentration not stated.
Setting [3] is: Eterna round: R95, input ligand: FMN 200 uM.
[4] abbreviates: Eterna round: R95, input ligand: none.

In the case of “AGAUAGUGGUGAGGAUAUCAGAAUAGAAAGAAAUGAGAAGGCACACAUGAGGAUCACCCAUGUGAGUUCUUGAGAUUACAUGGU [Prohibition 41 - Jieux - Exclusion NG 1] (Eterna round: R96, puzzle: Exclusion NG 1)”, the “apparent KD of MS2 coat protein” value under setting [1] turned out to be 14.4 nM.

As to “AGAUAUAGAGGAUAUUUGCGGGAACACAUGAGGAUCACCCAUGUCGAAUAGACGCCCUAUAAAGAAGGCUAGACUG [Eternabot (L2) Solution 86] (Eterna round: R97, puzzle: Exclusion 5)”, the “apparent KD of MS2 coat protein” value is, setting by setting: (input ligand: FMN 200 uM) 15.7 nM; (input ligand: none) 32.8 nM.

In the case of “AGAUCACAUGAGGAUCACCCAUGUCAGGAUAUCGUCACUGGAGCUUCGGCUCCAGUGACGAGAAGGGACAUAAU [E1/2-A1] (Eterna round: R97, puzzle: Exclusion 1)”, the “apparent KD of MS2 coat protein” value (input ligand: FMN 200 uM) was 161 nM and the “apparent KD of MS2 coat protein” value (input ligand: none) amounted to 554 nM.

For the sequence “AGAUCACAUGAGGAUCACCCAUGUCAGGAUAUCGUCACUGGAGCUUCGGCUCCAGUGACGAGAAGGGAUAAUUA [E1/4-A1] (Eterna round: R97, puzzle: Exclusion 1)”, the “apparent KD of MS2 coat protein” value reads like this: (input ligand: FMN 200 uM) 124 nM; (input ligand: none) 55 nM.

With “AGAUCACAUGAGGAUCACCCAUGUCAGGAUAUGAUACUAUGUACUUCGGUACAUAGUAUCAGAAGGGACUUAAA [Ex1-3: 70] (puzzle: Exclusion 1)”, the “apparent KD of MS2 coat protein” value under setting [2] was 101 nM.

Turning to “AGAUCACAUGAGGAUCACCCAUGUCAGGAUAUGAUACUAUGUACUUCGGUACAUAGUAUCAGAAGGGAUAUGAA [Ex1-3: 67] (puzzle: Exclusion 1)”, the “apparent KD of MS2 coat protein” value under setting [2] came to 109 nM.

On to “AGAUCCUGAGUCAGGAUAUAGAGACGGUAGUCGGGCUAGAAGGGACAUGAGGAUCACCCAUGUGGGUUCGGGCC [Zarareso] (puzzle: Brourd's mod of Exclusion 4)”, for which the “apparent KD of MS2 coat protein” value under setting [2] is 12.8 nM.

In the case of “AGAUCGAGUGUGAGGAUAUUGACCGGACGACCCAUCGAGAAGGCACAUGAGGAUCACCCAUGUGAUUCGGUUCA [Brourd's EX4 #57] (Eterna round: R97, puzzle: Brourd's mod of Exclusion 4)”, the “apparent KD of MS2 coat protein” value was 27.1 nM (input ligand: FMN 200 uM) and 15.4 nM (input ligand: none).

With “AGAUCGUCAGGAUAUACAUGAGGAUCACCCAUGUAUUGUCUAAAUUUGACUAUACGAUGUAGAAGGGACGAUCG [Exclusion 3 (MOD7 of #1 Marzena11)] (Eterna round: R97, puzzle: Exclusion 3)”, the “apparent KD of MS2 coat protein” value by setting is: (input ligand: FMN 200 uM) 41.7 nM; (input ligand: none) 16.2 nM.

On to “AGAUCUAGGACAGGAUAUAUGGAUGUCUUCAUCGAAGAUGAAGACAUCACAUGAGGAUCACCCAUGUAGAAGGGUCCUAGAUCA [Omei Exc(NG) 2Av2] (Eterna round: R96, puzzle: Exclusion NG 2)”, for which the “apparent KD of MS2 coat protein” value by setting is: (input ligand: FMN 200 uM) 11.9 nM; under setting [1], 13.5 nM; (input ligand: none) 15.6 nM.

As for “AGAUGCUCAAGUCGACAUGAGGAUCACCCAUGUACAGUUAAUGAGGAUAUCUGAGAUAAAUAAUAGGAGAAGGCGUGAACAUGA [Ex NG3 #9] (Eterna round: R96, puzzle: Exclusion NG 3)”, the “apparent KD of MS2 coat protein” value is, setting by setting: (input ligand: FMN 200 uM) 25.9 nM; under setting [1], 20.3 nM; (input ligand: none) 34.9 nM.

On to “AGAUGCUCGAGUCAACAUGAGGAUCACCCAUGUACAGUUAAUGAGGAUAUCUGAGACAAAUAGUAGGAGAAGGCGUGAACAUGA [Ex NG3 #12] (Eterna round: R96, puzzle: Exclusion NG 3)”, for which the “apparent KD of MS2 coat protein” value came to 32.1 nM (input ligand: FMN 200 uM), 69 nM under setting [1] and 39.6 nM (input ligand: none).

With “AGAUGCUCGAGUCGACAUGAGGAUCACCCAUGUACAGUUAGUGAGGAUAUCUGAGACACAUAGUAGGAGAAGGCGCGAACAUGA [Ex NG3 #13] (Eterna round: R96, puzzle: Exclusion NG 3)”, the “apparent KD of MS2 coat protein” value reads like this: (input ligand: FMN 200 uM) 132 nM; under setting [1], 43.4 nM; (input ligand: none) 60 nM.

With “AGAUGGCGAGGAUAUACAUGAGGAUCACCCAUGUGAAGAUAUAAAGUGAGGAAGAAAAGUAGAAGGCGCUGUCA [Mat - Exclusion 3 - Mod of Salish D25] (puzzle: Exclusion 3)”, the “apparent KD of MS2 coat protein” value was 225 nM under setting [3], 48.8 nM under setting [2] and 63.7 nM under setting [4].

Regarding “AGAUGGCGAGGAUAUACAUGAGGAUCACCCAUGUGAGAGAAAAGAGUGAGGAAGAAAAGUAGAAGGCGCUGUCA [Mat - Exclusion 3 - Mod of Salish D17] (puzzle: Exclusion 3)”, under setting [2], the “apparent KD of MS2 coat protein” value stood at 71 nM.

Take “AGAUGGCGAGGAUAUACAUGAGGAUCACCCAUGUGAGAUAAAAUAGUGAGGAAGAAAAGUAGAAGGCGCUGUCA [Mat - Exclusion 3 - Mod of Salish D15] (puzzle: Exclusion 3)”: the “apparent KD of MS2 coat protein” value reads like this: under setting [3], 268 nM; under setting [2], 58.1 nM; under setting [4], 73 nM.

On to “AGAUUAAAUGAGGAUAUCGUAUUGGAUAUAGUGCGAGAAGGCAUGACAUGAGGAUCACCCAUGUAGUGUUGGGA [JR_Ex6_Sub009] (Eterna round: R97, puzzle: Exclusion 6)”, for which the “apparent KD of MS2 coat protein” value (input ligand: FMN 200 uM) worked out at 91.5 nM and the “apparent KD of MS2 coat protein” value (input ligand: none) turned out to be 43.4 nM.

Regarding “AGCACUAUCACGAAAGUGAUAGUGCAAUAAGCAAGUGAAACAUGAGGAUCACCCAUGUCCUCAAUUGCUCGUCUUAU [Mat - Sensor v2 -ver2- JL mod - D81] (Eterna round: R96, puzzle: Sensor v2, turn-off variant 2)”, the “apparent KD of MS2 coat protein” value runs as follows: (input ligand: FMN 200 uM) 49.3 nM; under setting [1], 807 nM; (input ligand: none) 51.2 nM.

For the sequence “AGCAGACGAGGAUAUAAAUGAUAUAACAUGAGGAUCACCCAUGUACGAUCGAAUGAUCGUUUAGAAGGCGUCUGCU [E5/11-A1] (Eterna round: R97, puzzle: Exclusion 5)”, the “apparent KD of MS2 coat protein” value is, setting by setting: (input ligand: FMN 200 uM) 16.5 nM; (input ligand: none) 16.3 nM.

Consider “AGCAGACGAGGAUAUGAUCAAUAAUACAUGAGGAUCACCCAUGUAAUACUGAUCCAUGGAUCAGAAGGCGUCUGCU [E5/5-A1] (Eterna round: R97, puzzle: Exclusion 5)”, for which the “apparent KD of MS2 coat protein” value by setting is: (input ligand: FMN 200 uM) 23.5 nM; (input ligand: none) 16.4 nM.

For the sequence “AGCAUGCUAGGAUAUACGAAACAUUAGGGUUCGUCGUAUGAACAUGAGGAUCACCCAUGUAGAAGGAGCGUGCA [Mat - Exclusion 2 - Mod of Hyphema - D95] (puzzle: Exclusion 2)”, the “apparent KD of MS2 coat protein” value under setting [2] was determined as 17.9 nM.

For “AGCAUGUAAGGAUAUGCAACACGACGUUCAAUCGUCGUGCCGCAGAAGGUACAUGAGGAUCACCCAUGUGCUCC [Xesodied] (puzzle: Exclusion 4)”, the “apparent KD of MS2 coat protein” value under setting [2] amounted to 75.4 nM.

“AGCAUGUAAGGAUAUGUAACGCGGCGUUCAUUCGUCGUCCCACAGAAGGUACAUGAGGAUCACCCAUGUGCUCC [Veorla] (puzzle: Exclusion 4)”: the “apparent KD of MS2 coat protein” value under setting [2] was found to be 39 nM.

As for “AGCCAAGCAGGAUAUAUCCGGGAUAACAUGAGGAUCACCCAUGUGACCGAUUGAUGUCCUAUAGAAGGGCUUGGGA [Mod of ViennaUCT 22 - Jieux - Exclusion 5] (Eterna round: R97, puzzle: Exclusion 5)”, the “apparent KD of MS2 coat protein” value runs as follows: (input ligand: FMN 200 uM) 176 nM; (input ligand: none) 43.5 nM.

Take “AGCCAAGCAGGAUAUGCCCGGGAUAACAUGAGGAUCACCCAUGUGACCGAUUGAUGUCCUGCAGAAGGGCUUGGGA [Erxesoan] (Eterna round: R96, puzzle: Exclusion 5)”: the “apparent KD of MS2 coat protein” value is, setting by setting: (input ligand: FMN 200 uM) 82.4 nM; under setting [1], 11.4 nM; (input ligand: none) 16.9 nM.

As to “AGCCAAGCAGGAUAUGCCCGGGAUAACAUGAGGAUCACCCAUGUGACCGAUUGAUGUCCUGCAGAAGGGCUUGGGA [Erxesoan] (puzzle: Exclusion 5)”, the “apparent KD of MS2 coat protein” value under setting [2] was determined as 15.8 nM.

As to “AGCCAAGCAGGAUAUGCCCGGGAUAACAUGAGGAUCACCCAUGUGACCGAUUGAUGUCCUGCAGAAGGGCUUGGGA [Mod of ViennaUCT - Jieux - Exclusion 5] (Eterna round: R97, puzzle: Exclusion 5)”, the “apparent KD of MS2 coat protein” value stood at 83.2 nM (input ligand: FMN 200 uM) and 17.9 nM (input ligand: none).

In the case of “AGCCAUCGUGUGAGGAUAUCGAUAAGUUCGAGUUUCGAGAAGGCACAUGAGGAUCACCCAUGUCGUGAAAGAAA [BmEX4 A.28] (Eterna round: R97, puzzle: Brourd's mod of Exclusion 4)”, the “apparent KD of MS2 coat protein” value is, setting by setting: (input ligand: FMN 200 uM) 75.8 nM; (input ligand: none) 244 nM.

Take “AGCCCGCAAGGAGGAUAUUAACAUGAGGAUCACCCAUGUAAUCACUAGAUAGCACGGGCGGUUCGUAAGAAGGUCUAGUGGAAU [Eternabot solution 24] (Eterna round: R96, puzzle: Exclusion NG 2)”: the “apparent KD of MS2 coat protein” value (input ligand: FMN 200 uM) was found to be 35.4 nM, the “apparent KD of MS2 coat protein” value under setting [1] stood at 22.3 nM and the “apparent KD of MS2 coat protein” value (input ligand: none) came out at 33.1 nM.

Consider “AGCCCUAAUGUCAGGAUAUGCAUCCUUAAUGGACGGCAGAAGGGACAUGAGGAUCACCCAUGUAAAUAGAAAUU [Direised] (puzzle: Brourd's mod of Exclusion 4)”, for which, under setting [2], the “apparent KD of MS2 coat protein” value was found to be 31.4 nM.

For “AGCCCUGCAGGAUAUGCCCGGGAUAACAUGAGGAUCACCCAUGUGACUGAUUGUUAUCCUGCAGAAGGGCAUGGGA [JL-EX5-4.13 ViennaUCT mod] (Eterna round: R97, puzzle: Exclusion 5)”, the “apparent KD of MS2 coat protein” value was found to be 547 nM (input ligand: FMN 200 uM) and 1000 nM (input ligand: none).

Consider “AGCCUAGCAGGAUAUGCCCGGGAUAACAUGAGGAUCACCCAUGUGACUGAUUGAUGUCUUGCAGAAGGGCUAGGGA [JL-EX5-4.03 ViennaUCT mod] (Eterna round: R97, puzzle: Exclusion 5)”, for which the “apparent KD of MS2 coat protein” value came to 211 nM (input ligand: FMN 200 uM) and 26.1 nM (input ligand: none).
